Experiment: yeast display, Sf9 membrane polyspecificity reagent, FACS + sequencing; frameworks hold sequencing errors
Summary of the method: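 In a synthetic yeast display library (Saccharomyces cerevisiae BJ5465), nanobody expression was induced with galactose for 36–48 hours. FACS gates were set low and high (top ~1%) using anti-HA fluorescence for expression and streptavidin fluorescence for binding of the Sf9 membrane reagent. Each polyreactivity label is drawn from the gate of origin.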

Sequence | polyreactivity (PSR sort gate)
QVQLVESGGGLVQAGGSLRLSCAASGSIFTEDAMGWYRQAPGKERELVAAISWSGATTYYADSVKGRFTISRDKAKNPVDLQMNSLKPEDTAVYYCAARWANRSYEYWGQGTQVTVSS | low polyreactivity
QVQLVESGGGLVQAGGSLRLSCAASGSIFTFNAMGWYRQAPGKERELDAGISWRTSSTSYADSVKGRFTNSRDNAKNTVYLQMNSLKPEDTAVYYCATEDSWGYEEVDYWGQGTQVTVSS | low polyreactivity
QVQLVESGGGLVQAGGSLRLSCAASGSIFTFNTMGWYRQAPGKERELVATISSGGRTYYADSVKGRFTISRDNAKNTVYLQMNSLKPEDTAVYYCNKGYYGYTYVEYNYWGQGTQVTVSS | low polyreactivity
QVQLVESGGGLVQAGGSLRLSCAASGSIFTFYAMGWYRQAPGKERELVAAISKGGDRTYYADSVKGRFTISRDNAKNTVYLQMNSLIPEDTAVYYCARLVRPGRFGDGDYWGQGTQVTVSS | low polyreactivity
QVQLVESGGGLVQAGGSLRLSCAASGSIFTFYAMGWYRQAPGKERELVATINRIGGNTYYADSVKGRFTISRDNAKNTVYLQMNSLKPEDTAVYYCAAKPTYRGYGYGSWGQGTQVTVSS | low polyreactivity
QVQLVESGGGLVQAGGSLRLSCAASGSIFTFYAMRWYRQAPGKERELVATINRIGGNRYYADSVKGRFTISRDNAKNTVYLQMNSLKPEDTAGYYCAAKPTYRGYGYGSWGQGTQVNVSS | low polyreactivity
QVQLVESGGGLVQAGGSLRLSCAASGSIFTGNAMGWYRQAPGKERELVASITTSTDSTYYADSVKGRFTISRDNAKNTVYLQMNSLNPEDTAVYYCAAEYAVAWKYGLYFYFHFDYWGQGTQVTVSS | low polyreactivity
QVQLVESGGGLVQAGGSLRLSCAASGSIFTGNTMGWYRQAPGKDRELVATISRRGGSTYYADSVKGRFTITRDNAKYSVYLQMNSLKPEDTAVYYCAARGPYRPPHGDAYYTYGYWGQGTQVTVSS | high polyreactivity
QVQLVESGGGLVQAGGSLRLSCAASGSIFTGNTMGWYRQAPGKERELVAAISRRGGRTYYADSVKGRFTISRDNAKNTVYLQMNSLKPEDTAVYYCAALGRDSTPHGYWGQGTQVTVSS | high polyreactivity
QVQLVESGGGLVQAGGSLRLSCAASGSIFTGYAMGWYRQAPGKERELVAAIRTRGGSTYYADSVKGRFTISRDNAKNTVYLQMNSLKPEDTAVYYCAKRYYGWYGNFDYWGQGTQVTVSS | high polyreactivity
QVQLVESGGGLVQAGGSLRLSCAASGSIFTGYAMGWYRQAPGKERELVAGISWGGTSTYYADSVKGRFTISRDNAKYTVYLQMNSLKPEDTAVYYCSAVRGKYGYLTTPDWFDYWGQGTQVTVSS | high polyreactivity
QVQLVESGGGLVQAGGSLRLSCAASGSIFTGYSMGWYRQAPGKERELVAAISNSGTSTYYADSVKGRFTISRDNAKNTVYLQMNCLKPDDTAVYYCNRYHRLRVVPSRYVKYDYWGQGTQVTVSS | low polyreactivity
QVQLVESGGGLVQAGGSLRLSCAASGSIFTHNAMGWYRQAPGKVREFVAAISSGGSTNYADSVKGRFTISRDNAKNTVYSQMNSLKPEDTAVYYCAKSIDGWYWRRRRYDYWGQGTQVTVSS | low polyreactivity
QVQLVESGGGLVQAGGSLRLSCAASGSIFTKNSMGWYRQAPGKERELVAAISSGGSTYYADSVKGRFTISRDNAKNTVYLQMNSLKPEDTAVYYCARGASFFQKFYYWGQGTQVTVSS | high polyreactivity
QVQLVESGGGLVQAGGSLRLSCAASGSIFTLNAMGWYRQAPGKERELVAAIRWSGGSTYYADSVKGRFTISRDNAKNTVYLQMNSLKPEDTAVYYCAAKYPSDYYSRGFNYWGQGTQVTVSS | high polyreactivity
QVQLVESGGGLVQAGGSLRLSCAASGSIFTLNAMGWYRQAPGKERELVAAISRSGGSTYYADSVKGRFTISRDNAKNTVYLQLNSLKPEDTAVYYCAVYVTRDSGWWLYDYWGQGTQVTVSS | high polyreactivity
QVQLVESGGGLVQAGGSLRLSCAASGSIFTLYTMGWYRQAPGKERELVAGISWRGGRTYYADSVKGRFTISRDNAKNTVYLQMNSLKPEDTAVYYCAAKWTPHIYTLYSWGQGTQVTVSS | high polyreactivity
QVQLVESGGGLVQAGGSLRLSCAASGSIFTNAMGWYRQAPGKERELVASIDANAGDTHYADSVKGRFTISRDNAKKTVYLQMNSLKPEDTAVYYCNADVTERLWTGEDDYWGQGTQVTVSS | low polyreactivity
QVQLVESGGGLVQAGGSLRLSCAASGSIFTNNAMGRYRQAPGKERELVAGISFRGSSTYADSVKGRFTISRDNAKNTVYLQMNSLKPEDTAVYYCAAEWFDLEDDYWGQGTQVTVSS | low polyreactivity
QVQLVESGGGLVQAGGSLRLSCAASGSIFTNNAMGWYRQAPGKETELVAAISWSGGSTYYADSVKGRFTISRDNAKNTVYLQMNSLKPEDTAVYYCAARRWGGPRYKYNYWGQGTQVTVSS | high polyreactivity
QVQLVESGGGLVQAGGSLRLSCAASGSIFTPNAMGWYRQAPGKERELVAAISSSSDRTYYADSVKGRFTISRDNAKNTVYLQMNSLKPEDTAVYYCAAYAQKRYYWGQVTQVTVSS | high polyreactivity
QVQLVESGGGLVQAGGSLRLSCAASGSIFTPNGRGWYRPAPGKDSELVAAISQSGGSTFYADSVKGRFTMSRDNAKYTVYLQMNSLKPEDSAVYYCATEYYGPVYDLDYDYWGQGSQVTVSS | low polyreactivity
QVQLVESGGGLVQAGGSLRLSCAASGSIFTPNVMGWYRQAPGKERELVAAISQSGGSTFYADSVKGRFTISRDNAKNNVYLQMNSLKPEDTAVYYCAADPFYYFPSPFDYWGQGTQVTVSS | low polyreactivity
QVQLVESGGGLVQAGGSLRLSCAASGSIFTPYAMGWYRQAPGKERELVAAISDSVGSTYYADSVKGRFTISRDNAKNTVYLQMNSLKPEDTAVYYCAAEYWVYDSYWFDYDYWGQGTQVTVSS | high polyreactivity
QVQLVESGGGLVQAGGSLRLSCAASGSIFTPYAMGWYRQAPGKERELVAAITSGGSTYADSVKGRFTISRDNAKNTVYLQMNSLKPEDTAVYYCAADRSYVYAGADMYYWGQGTQVTVSS | low polyreactivity
QVQLVESGGGLVQAGGSLRLSCAASGSIFTPYAMVWYRQAPGKERELVATISWRGGSTYADSVKGRFTISRDNAKNTVYLQMNSLKPEDTAVYYCNKEYTFSLYDYWGQGSQVTVSS | low polyreactivity
QVQLVESGGGLVQAGGSLRLSCAASGSIFTRNALGWYRQAPGKETEFVAAISSSGVSTYYADSVKGRFTISRDNAKNTVYLQMNSLKPEDTAVYDCAARWGTKSGRFEYWGQGTQVTVSW | high polyreactivity
QVQLVESGGGLVQAGGSLRLSCAASGSIFTRNAMGWYITAPGKEREFVAAISSSGVSTYYADSVKGRLTISRDNAKNTVYLQMNSLKPEDTAVYYCAARWGTKSGRYDYWGQGTQVTVSS | high polyreactivity
QVQLVESGGGLVQAGGSLRLSCAASGSIFTRNAMGWYRQAPGKERELVAAISWRGGITNYADSVKGRFTISRDNAKNTVYLQMNSLKPEDTAVYYCNKIRTRGGYGYWGQGTQVTVSS | high polyreactivity
QVQLVESGGGLVQAGGSLRLSCAASGSIFTRNTMGWYRQAPGKERELVAAISTSGGDTYYADSVKGRFTISRDNAKNTVYLQMNSLKPEDTAVYFCAVVLVGVYFGYDYWGQGTQVTVSS | high polyreactivity

Reference: the nanobody polyreactivity screen of Harvey et al. (2022)
